Patent US20200283521A1 (GRANULAR THERAPEUTICS, published 2020)

Tests used:
[1] = molecular target: T1, human C-KIT, full length, on cells (human, UniProt P10721 26-976); assay: flow cytometry, CHO-K1 transfectants
T1 construct: full-length cDNA stably transfected in CHO-K1; also used here for endogenous C-KIT of TF-1 cells; also called human C-KIT+ CHO-K1 cells; C-KIT on TF-1 cells

human C-KIT-Fc = molecular target: T2, human C-KIT-Fc (human, UniProt P10721 26-524); assay: direct titration ELISA on coated C-KIT-Fc, IgG1 format
T2 construct: also called biotinylated human C-KIT-Fc; not shown: Fc part not described

binding result [1]: binds
binding result (human C-KIT-Fc): no binding (tested: 10 µg/ml)
B1: MH5.33 (antibody, IgG1, V domains shown)
VH: QVQLVQSGAEVKKPGASVKVSCKASGYTFTNYYMNWVRQAPGQGLEWMGRIYPASGNTYYAQKFQGRVTMTRDTSTSTVYMELSSLRSEDTAVYYCARGVWYYDYWGQGTLVTVSS
VL: DIQMTQSPSSLSASVGDRVTITCRASQGIRTNLAWFQQKPGKAPKSLIYAASSLQSGVPSRFSGSGSGTDFTLTISSLQPEDFATYYCQQYANYPRTFGGGTKVEIK
notes: IgG1
